Values joined by “and” are separate entries in the source; they are usually repeats but may differ in a detail not shown here. Equal entries are not always repeated. Marks after values point to notes of the source that are not given here.
Assays:
[1] = test system: LoVo tumors; assay: Anti-tumor activity in LoVo colorectal mouse xenograft model; type: in vivo
Protocol: H460, LS174T and LoVo tumors were established in female athymic nude mice. Groups of 10 mice received a total of three single doses of 4-ARM-PEG20K-BA-DOC or docetaxel administered every 7 days (q7d×3) at several doses up to a maximum tolerated dose (MTD). Control groups received no treatment after tumor implant. Animals were weighed daily for the first five days and twice weekly thereafter. Tumor volumes were measured twice weekly after the first drug injection.
Anti-tumor activity was measured as changes in tumor volume, time to reach endpoint, and complete or partial tumor regression.
Treatment outcome was evaluated by Tumor Growth Delay (TGD), which is defined as the increase in median time to endpoint in a treatment group compared to the control group. Here it is expressed as % TGD, as a percentage to the median time to endpoint of the control group.
A tumor whose volume was reduced to 50% or less for three consecutive measurements compared to its volume on Day 1 was considered to be in partial regression. Complete regression was defined as volume […] 13.5 mm^3 for three consecutive measurements.
Acceptable toxicity was defined as a group mean body weight (BW) loss of less than 20% during the study and not more than one treatment-related death among ten treated animals.

[2] = Pharmacokinetics after IV infusion in Sprague-Dawley rats; type: in vivo, rat
Protocol: The objective of this study was to assess the pharmacokinetics and excretion of docetaxel and 4-ARM-PEG20K-BA-docetaxel after intravenous infusion to rats.
Pharmacokinetics of 4-ARM-PEG20K-BA-docetaxel and docetaxel were evaluated in male rats (15 rats/dose level) dosed with 5, 10, and 15 mg/kg (30, 60, 90 mg/m^2) 4-ARM-PEG20K-BA-docetaxel or 5 mg/kg (30 mg/m^2) docetaxel. 4-ARM-PEG20K-BA-docetaxel and docetaxel were administered via a femoral vein catheter as 30-min intravenous infusions at 4 mL/kg. Blood samples (n=15 timepoints with n=5 samples/dose level/timepoint) were obtained by jugular venipuncture between pre-dose and 144 hours post-dose.

[3] = Population pharmacokinetic modeling of terminal disposition rate constant, rats; type: in vivo; settings: rat
Excerpt: (§1) To further evaluate the sustained plasma docetaxel terminal half-life, a population pharmacokinetic approach was employed.
(§2) While determining the pharmacokinetics of docetaxel after administration of docetaxel or 4-ARM-PEG20K-BA-docetaxel, it was observed that reliable values for the terminal disposition rate constant λz could not be obtained for the majority of animals secondary to fluctuation of plasma docetaxel concentrations between adjacent sampling times and/or the occurrence of incomplete concentration-time profiles due to concentrations being near or at the lower limit of quantification (1 ng/mL). In addition, in Example 14, rats were sampled in groups of 15 using alternating, overlapping sparse sampling schemes across groups to encompass the total duration of sampling. All of these factors contributed to the occurrence of sparse data within a given animal's terminal concentration-time profile.
(§3) To further investigate and compare docetaxel terminal disposition patterns between docetaxel and 4-ARM-PEG20K-BA-docetaxel, population pharmacokinetic methods were applied to data from rats (Example 14) and dogs (Example 15 and in one additional study). This allowed estimation of population λz values and corresponding half-life values for each treatment group in the presence of incomplete data within individual animals. Specifically, data from all animals within a treatment group and all treatment groups were fit with a nonlinear mixed effect pharmacokinetic model using the program Monolix. Plasma docetaxel concentrations following docetaxel or 4-ARM-PEG20K-BA-docetaxel administration, and plasma 4-ARM-PEG20K-BA-docetaxel concentrations following 4-ARM-PEG20K-BA-docetaxel administration were fit with a model specifying zero-order input of the dose over a defined infusion period and biexponential disposition (Monolix PK Model 26). Docetaxel concentration-time data after 4-ARM-PEG20K-BA-docetaxel were fit with a model having first order input, to reflect metabolism of 4-ARM-PEG20K-BA-docetaxel to the active docetaxel metabolite, and biexponential disposition (Monolix PK Model 31). The parameter of interest for this investigation was the population terminal disposition rate constant, λz to supplement the results described above.

[4] = Population pharmacokinetic modeling of terminal disposition rate constant, dogs; type: in vivo; settings: dog
Excerpt: as §1, §2, §3
Dogs in the additional study received 7 mg/kg doses of 4-ARM-PEG20K-BA-docetaxel on Days 1 and 22 with serial blood sampling after each dose for determination of plasma 4-ARM-PEG20K-BA-docetaxel and docetaxel concentrations.

[5] = 16.9 mg/kg (50.7 mg/m^2), q7d×3
[6] = 22.5 mg/kg (67.5 mg/m^2), q7d×3
[7] = 30 mg/kg (90 mg/m^2), q7d×3 (MTD for both agents)
[8] = 40 mg/kg (120 mg/m^2), q7d×3 (exceeded MTD)
[9] = male rats, average over 5, 10, 15 mg/kg
[10] = male rats, single IV dose 5 mg/kg
[11] = male rats, single IV dose 10 mg/kg
[12] = male rats, single IV dose 15 mg/kg
[13] = docetaxel 5 mg/kg or conjugate 5, 10, 15 mg/kg
[14] = additional study, conjugate 7 mg/kg on Days 1 and 22
[15] = docetaxel 0.75 mg/kg or conjugate 0.72, 2, 4 mg/kg
[16] = 12.7 mg/kg (38.1 mg/m^2), q7d×3

4-ARM-PEG20K-Butanoate-Linked Docetaxel Conjugate [4-ARM-PEG20K-BA-DOC]
BW Loss (%) [1, 5]: 7.0%
Day of BW Nadir [1, 5]: 21
No. Surviving/No. Treated Mice [1, 5]: 10/10
PR (partial regressions) [1, 5]: 0
TGD (%) [1, 5]: 64** %
BW Loss (%) [1, 6]: 11.0%
Day of BW Nadir [1, 6]: 24
No. Surviving/No. Treated Mice [1, 6]: 10/10
PR (partial regressions) [1, 6]: 0
TGD (%) [1, 6]: 50* %
BW Loss (%) ([1]; 30 mg/kg (90 mg/m^2), q7d×3): 16.2%
Day of BW Nadir ([1]; 30 mg/kg (90 mg/m^2), q7d×3): 24
No. Surviving/No. Treated Mice ([1]; 30 mg/kg (90 mg/m^2), q7d×3): 10/10
PR (partial regressions) ([1]; 30 mg/kg (90 mg/m^2), q7d×3): 0
TGD (%) [1, 7]: 128%
Day of BW Nadir ([1]; 40 mg/kg (120 mg/m^2), q7d×3): 24
No. Surviving/No. Treated Mice ([1]; 40 mg/kg (120 mg/m^2), q7d×3): 10/10
BW Loss (%) [1, 8]: 22.6%
TGD (%) [1, 8]: 148% and 148 ^1%
CL, analyte conjugate, average (±SD) [2, 9]: 0.33 mL/min/kg
Vss, analyte conjugate, average (±SD) [2, 9]: 0.61 ± 0.17 L/kg
AUCinf, analyte conjugate [2, 10]: 250.374 µg·h/mL
AUClast, analyte conjugate [2, 10]: 226.203 µg·h/mL
AUClast, analyte docetaxel [2, 10]: 1.711 µg·h/mL
CL, analyte conjugate [2, 10]: 0.33 mL/min/kg
Cmax, analyte conjugate [2, 10]: 40079 ng/mL
Cmax, analyte docetaxel [2, 10]: 122 ng/mL
T1/2, analyte conjugate [2, 10]: 73 h
Tmax, analyte conjugate [2, 10]: 0.5 h
Tmax, analyte docetaxel [2, 10]: 0.5 h
Vss, analyte conjugate [2, 10]: 0.8 L/kg
AUCinf, analyte conjugate [2, 11]: 437.912 µg·h/mL
AUClast, analyte conjugate [2, 11]: 419.132 µg·h/mL
AUClast, analyte docetaxel [2, 11]: 3.003 µg·h/mL
CL, analyte conjugate [2, 11]: 0.38 mL/min/kg
Cmax, analyte conjugate [2, 11]: 70795 ng/mL
Cmax, analyte docetaxel [2, 11]: 176 ng/mL
T1/2, analyte conjugate [2, 11]: 59 h
Tmax, analyte conjugate [2, 11]: 0.5 h
Tmax, analyte docetaxel [2, 11]: 2.0 h
Vss, analyte conjugate [2, 11]: 0.55 L/kg
AUCinf, analyte conjugate [2, 12]: 895.159 µg·h/mL
AUClast, analyte conjugate [2, 12]: 847.993 µg·h/mL
AUClast, analyte docetaxel [2, 12]: 3.743 µg·h/mL
CL, analyte conjugate [2, 12]: 0.28 mL/min/kg
Cmax, analyte conjugate [2, 12]: 138296 ng/mL
Cmax, analyte docetaxel [2, 12]: 273 ng/mL
T1/2, analyte conjugate [2, 12]: 63 h
Tmax, analyte conjugate [2, 12]: 0.5 h
Tmax, analyte docetaxel [2, 12]: 1.0 h
Vss, analyte conjugate [2, 12]: 0.47 L/kg
plasma docetaxel AUC compared with docetaxel ([2]; rats, equivalent doses (5 mg/kg)): similar
plasma docetaxel half-life, fold longer than after docetaxel [3]: about 4 fold
Mean (SE) λz, plasma docetaxel [3, 13]: 0.00412 (0.001) hr^−1
t½λz, plasma docetaxel [3, 13]: 168 h
plasma docetaxel half-life, fold longer than after docetaxel [4]: about 8 fold
Mean (SE) λz, plasma conjugate [4, 14]: 0.0141 (0.00041) h^−1
Mean (SE) λz, plasma docetaxel [4, 14]: 0.00627 (0.00086) hr^−1
t½λz, plasma docetaxel [4, 14]: 110 h
Mean (SE) λz, plasma docetaxel [4, 15]: 0.00349 (0.0021) hr^−1
t½λz, plasma docetaxel [4, 15]: 199 h

CC(=O)O[C@@]12CO[C@@H]1C[C@H](O)[C@@]1(C)C(=O)[C@H](O)C3=C(C)[C@@H](OC(=O)[C@H](O)[C@@H](NC(=O)OC(C)(C)C)c4ccccc4)C[C@@](O)([C@@H](OC(=O)c4ccccc4)[C@H]21)C3(C)C [Docetaxel, reference compound]
BW Loss (%) [1, 16]: 5.0%
Day of BW Nadir [1, 16]: 24
No. Surviving/No. Treated Mice [1, 16]: 10/10
PR (partial regressions) [1, 16]: 0
TGD (%) [1, 16]: 7%
BW Loss (%) [1, 5]: 12.8%
Day of BW Nadir [1, 5]: 21
No. Surviving/No. Treated Mice [1, 5]: 10/10
PR (partial regressions) [1, 5]: 0
TGD (%) [1, 5]: 70** %
BW Loss (%) [1, 6]: 14.6%
Day of BW Nadir [1, 6]: 24
No. Surviving/No. Treated Mice [1, 6]: 10/10
PR (partial regressions) [1, 6]: 0
TGD (%) [1, 6]: 32* %
BW Loss (%) ([1]; 30 mg/kg (90 mg/m^2), q7d×3): 13.3%
Day of BW Nadir ([1]; 30 mg/kg (90 mg/m^2), q7d×3): 21
No. Surviving/No. Treated Mice ([1]; 30 mg/kg (90 mg/m^2), q7d×3): 10/10
PR (partial regressions) ([1]; 30 mg/kg (90 mg/m^2), q7d×3): 0
TGD (%) [1, 7]: 64** %
TGD (%) ([1]; 30 mg/kg (90 mg/m^2), q7d×3 (MTD for both agents), listed as docetaxel): 64%
AUC(0-t) ([2]; Sprague-Dawley, rat, plasma, male rats, single IV dose 5 mg/kg, read-out: AUClast, analyte docetaxel): 1.42 µg·h/mL
Cmax ([2]; Sprague-Dawley, rat, plasma, male rats, single IV dose 5 mg/kg, read-out: Cmax, analyte docetaxel): 682 ng/mL
Tmax ([2]; Sprague-Dawley, rat, plasma, male rats, single IV dose 5 mg/kg, read-out: Tmax, analyte docetaxel): 0.5 h
t½λz, plasma docetaxel ([3]; in vivo): 40 h
t½λz, plasma docetaxel ([4]; in vivo): 25 h
